Data taken from patent US20110117099A1.

Target: type I Collagen (Sigma)
Assay: solid phase assay, biotinylated rBSdrF titrated on collagen-coated wells

purified recombinant B domain of SdrF (rBSdrF), N-terminal His tag (from UniProt Q9KI14 678-1128)
concentration at which maximum binding occurs: 20 ng/mL
